This series in a line: soluble fraction after stress (log2 fold change); higher = more stays soluble; pooled small domains, quantitative proteomics. The conditions noted are these: stress: 50 degC. In outline: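 Quantitative proteomics served as the high-throughput read-out for pooled custom libraries of small protein domains. Each was stressed at 50°C. Aggregation propensity is expressed as the base-two log fold change in soluble protein after stress. A higher value means a larger share of the protein remains in solution.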
For the sequence “HMKTTVEVSPIARPGAVASGSVKFGSGVTAEWMLDQYGRLGLDKPTGKPTEQDIKEFQIELQKAL”, the “soluble fraction (log2)” value was found to be 0.165.
Take “HMERVNILEKATKDIPNVEVKAFEGLSVNFARENHAQVIVRGLRAVTDFEYELQMAQTNRVLAPDVDTVF”: the “soluble fraction (log2)” value came out at 0.124.
With “HMTVADMQQKANVKRRNSNSHEAILDATVKLLGSSGYIDFSIEKVASQAGVGKQTIYRWWPSRADLVLEVW”, the “soluble fraction (log2)” value is -0.109.
Regarding “HMKTPAPRETILSLFRQTPDGFVSGERISDELGVSRTAVWKHIRNLRQAGYQIEAIPSRGYQLQQS”, the “soluble fraction (log2)” value is -0.359.
Take “HMVEEVDYGTFMRMIEEKNIGKVEVRAGEIVFTDKDEKQIYKTGAMEDATLTQRLYESGAEFSKDV”: the “soluble fraction (log2)” value amounted to 0.0146.
The result for “HMNDITVNVEDSKLIVTSNNPEKLPLYIMDIQGHILDKSEITAGTYSFPISDRGTYIVRIGENVYKVI” reads 0.0386; that for “HMGETPEILRDWEAAQNAVNDMLSKYAPGGYMGKIIYPLLTPLKERLEAGERTPDLYNAIVEAT”, 0.0804.
Turning to “HMDTNRIIGNKIYQLRRSINMTQQELAEKVGISVTFLSEIENGRKSMSVDTLIKLSKGLQVSLDTIVF”, the “soluble fraction (log2)” value is -1.46.
For “HMEVTYQETLRVLYNAIDKLPPQTKEIILIGLDGKDNNEIAATLNISVNTVKTLKKNAYKTLRELLVD”, the “soluble fraction (log2)” value was -0.157.
On to “HMPASGISSEIIYDGILIEENLRQLKKDKAWLMDQLKKKGISSVSEVFLATLNKGGSLYIDKY”, for which the “soluble fraction (log2)” value is -0.0117.
Regarding “HMNRTEYMAALRRALSVLPEEERASALRYYEEYFDDAGPENEEKVIADLGAPEKVAGQILADYRE”, the “soluble fraction (log2)” value was found to be 0.00316.
Consider “HMSFTDLILKSANAIDEMGGIWENGKQILGEKAIAIHEEIVDNGLNPDKDGFYKLANGQMIQYG”, for which the “soluble fraction (log2)” value was -0.000487.
In the case of “HMGDHYTALGLSIDATPEEIRSAYFLAARRSHPDANPDAQTTEWFLRVQEAYDILSNPRRRAEYDASLP”, the “soluble fraction (log2)” value was -0.554.
As for “HMDNLSQMQERILEFIIRSKDQSGYTPSLREIGDEVGLKAVSSVKYQLEQLKDAHYISFDANTARAIRVLI”, the “soluble fraction (log2)” value was -1.7.
“HMSPVPRIEIELTSSKEDGSWTWRAVGAREPRGSLDGALLAKPAAVGDVLRVETDQFLDGMTVTAILPPRD”: the “soluble fraction (log2)” value was -0.325.
For the sequence “HMELAALKILNSPIGKIAIGTSENGLVKLDILTSGQTRAEFSDLPKAHKLALDAADQLAAYF”, the “soluble fraction (log2)” value was determined as 0.0579.
Consider “HMGQHSAELKLHPQDLGQVTISMKVEDNQAQLQMVSGHGHVRAALEAALPQLRSQLADSGIQLTQSSIS”, for which the “soluble fraction (log2)” value was -0.146.
On to “HMPREQQENVYLLEKAKRLYEEYLGDQRQTIGHALAQFERVLESQDPAAIRRAQKEFGEFLERYDG”, for which the “soluble fraction (log2)” value came to 0.102.
Take “HMDKVVGSAGDVTSRITANSGEVKIDGQIWQARSYDETIAIEAGEKIEVFDLDGITLIVYPI”: the “soluble fraction (log2)” value was -0.604.
The result for “HMDDSVTFSEFVRMVDSGQVESVRITGNEVTGSDSTGNTFRTFVPPQYEGLVNRLVERDVAVTAEE” reads 0.0594; that for “HMHDPRLPLPGTLLAREFQGRDIVVKVLDNGFEFDGRRYKSLSAIAQEVTGSKWNGFLFFGI”, -0.857; that for “HMPPSQRVNRILSLAGITSRRKADEYILEGRVTVNGEVLKEPGAKAVWGTDDIRVDGKPIPALS”, 0.1.
Turning to “HMQVSDAAQLAEVVKTVLAENPAAVGDYRKGKKAAIGFLLGQVMRHMRGTANPAVARQLLEQALEDE”, the “soluble fraction (log2)” value turned out to be 0.0337.
As to “HMDIMNNILINRIKKILTEQNMSKADLSRLTGISNSSLSEYLNGKYEPKQDKIALIAKALHVSPAWLMGF”, the “soluble fraction (log2)” value was -0.915.
As to “HMIRVGRPQYKRGEFVSFDFDNGRKKTEMYGRVDVIDSYGTFGQGREVSYDIRASDGILYKHIPESSVYGF”, the “soluble fraction (log2)” value is -1.5.
In the case of “HMSNEDAYIKLRNGFLATLSEADLLLFTLREEGKTQKEIADQLGYKTHSAVSKRLQTMRGQFEGYLKTQ”, the “soluble fraction (log2)” value was -0.68.
For “HMAKRYFVTTGVRVRTKPDTANSEVLTVLDEGSEIDYKGDYNNEWVKINYNGQEAYIAKQYVRSEE”, the “soluble fraction (log2)” value was -0.377.
Turning to “HMLAHSEFGARLRETRKRLGLSQSELGGDRYSGSYISHLESGRRAASAEVIEFLAGRLGVEVEELGM”, the “soluble fraction (log2)” value was -0.171.
The result for “HMLSVNREQVEQSLKQEWGFDYDKNLRAAQRAIDVYGDDDLKLLLNGPTGNDPAIVKLFARLGGEVTEE” reads -0.00909.
To “HMKKKVDSENLLLDILKQMQPQASTNVLRKMLTNQRISVDDQIIHRAKHVVQEGQTVEIHPKP” belongs 0.00763; to “HMVTINTASLEKAIADAKAVVKESYTTDSYNAMKAVLDEAEDLLKEEAQDQDTIDAKTEALNAAIEALVKR”, 0.0369; to “HMAVTGRVDLRIKPWGYVSVDGAAKVSSPPTMQLKLAPGRHEIEITNPAGAAVTKTVDVIAGKSVTVQHN”, 0.0967.
Regarding “HMTNQKEITYSQFRQELDQGSIKSVSLQGSRIRGTYVDGGISFRTLAPNDADLIPSLMKHKVDIQVLPED”, the “soluble fraction (log2)” value is 0.247.
As to “HMFNEFEDIPDIISAEGIDPAMREEVAANLKKYYKNPDAMLALAPLEREYYEKLVGILSEKIELKKEN”, the “soluble fraction (log2)” value stood at 0.563.
On to “HMGGSVYTVQKGDTLWSIAKEQLGSPLRYAEIYDLNKDVIEEAARGRGKKDSSNGHWLVVGTSLQIPEAT”, for which the “soluble fraction (log2)” value amounted to 0.42.
The result for “HMDSSSYSAKVGTLIQETRQARGMTQAQLAQALGTSQSAINRIEKGGQNISLDMLNRISEVLSSQIVTLNP” reads -0.0626; that for “HMSVVKPIYIGMMTSEVEAIMGKPFEVITNNNSKNNQLWIYKYQDKRSVMLTFTNYKLIKIE”, -0.819; that for “HMATYDIDALKVDLPSAKELAQFVYDKTDGLVSLDLIGKPKEEQYIVAKNALEGKKVPAEYLTGFNPY”, 0.202.
The result for “HMKKTETVRFTTNVTHGTKIKETDVEVVKISNSALPDKVVKNKTEVIGKYATADLFKGDFATENKVTD” reads 0.0533.
For “HMEGMQATVTQITDEGITVRYVMNGQMVTRTLTSDEVAFVNRGQAVSDLAGAYRVGQTVWIY”, the “soluble fraction (log2)” value was -0.0401.
In the case of “HMRTAKEVFYKELKGYMQNGDELSVKKIYSLFPEINPKTVSWRLHELVQHGKIHRTGHGYYALTQ”, the “soluble fraction (log2)” value is -1.07.
The result for “HMEEIQLILAKNLKSIREKEKLSLEKVSQLTGVSKTMIGQIERGDSSPTLTTIWKIANGLKVSFTSLINNP” reads -2.01; that for “HMAGSGDLNAKYLASIPAPMKAKILKAVANHYGVSISEFEEEVTDKDAEALYEYIPTRSMAVQVLRDMKG”, -0.373; that for “HMADPRFHSEIMLSKIESLLSGKADSDVSNYSIQGRSLTKMSLQELMDARESYDGLVKSEKAKLDAKY”, 0.0495.
As to “HMSLSEGVSADVVADVQARLMELGYMDEDDPDGNFSESTRIAVEHFQQQAGLPVTGTVDKATLDALNSPD”, the “soluble fraction (log2)” value stood at 0.0669.
For the sequence “HMAKETLRANIKDYIQKQIASGVYRPGDRIVETQLAREMNVSQAPVREAILELVSLGLLEERPYSGHMVRQ”, the “soluble fraction (log2)” value worked out at 0.178.
For “HMKEDNPIVLINLQAKEGEWVFKGTGLPYVGKYHQHKNGEYMIGIGVLNLNHELKPDEIIIPNPNK”, the “soluble fraction (log2)” value is -0.109.
For the sequence “HMKEPFETMPDVMDAKQIAEALQISKAGAYNLLNSPDFPTLRIGGRKLVMKNELVEWLKSHTNRK”, the “soluble fraction (log2)” value was determined as 0.274.
As for “HMRRNLSGEDTIVNRMAQWQYTQEQKNELHKMMDAGMPQEDILSVFYPEIKAEEMHRFLLAFQTAHNSG”, the “soluble fraction (log2)” value is -0.162.
The result for “HMLSAGTTEQRLAMLQYQWEKQSETYSALGPNNGVVTLGQIRNTMAKIAELAGFKDAAQFWMPVPMDYDV” reads -0.323.

For the origin of these results see the domain aggregation screens of Martell et al. (2025).
